Assay results as given in patent publication US20260217793A1 (Chugai, published 2026).

T1: FcγRIIa type R extracellular domain with C-terminal His tag (human, UniProt P12318 34-217)
T1 sequence (looked up): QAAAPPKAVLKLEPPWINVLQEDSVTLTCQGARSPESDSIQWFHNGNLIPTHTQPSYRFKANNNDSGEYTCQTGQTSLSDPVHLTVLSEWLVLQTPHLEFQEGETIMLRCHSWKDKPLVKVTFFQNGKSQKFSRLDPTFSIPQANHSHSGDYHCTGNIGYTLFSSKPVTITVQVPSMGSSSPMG

T2: FcγRIIb extracellular domain with C-terminal His tag (human, UniProt P31994 43-217)
T2 sequence (looked up): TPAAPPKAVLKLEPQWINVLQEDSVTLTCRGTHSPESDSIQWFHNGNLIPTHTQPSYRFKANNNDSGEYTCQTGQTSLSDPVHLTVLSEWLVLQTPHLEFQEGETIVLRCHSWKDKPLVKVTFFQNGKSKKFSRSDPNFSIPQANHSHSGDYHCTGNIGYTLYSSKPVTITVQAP

T3: FcγRIIa type H extracellular domain with C-terminal His tag (human, UniProt P12318 34-217)
T3 sequence (looked up): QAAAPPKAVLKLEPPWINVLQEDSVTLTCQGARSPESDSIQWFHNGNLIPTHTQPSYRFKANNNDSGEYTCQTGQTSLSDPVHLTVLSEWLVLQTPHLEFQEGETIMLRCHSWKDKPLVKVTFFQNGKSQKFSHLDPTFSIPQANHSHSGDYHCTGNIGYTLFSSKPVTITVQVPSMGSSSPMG

T4: human FcγRIIa type R (Arg131) extracellular domain with C-terminal His tag (human, UniProt P12318 34-217)
T4 sequence (looked up): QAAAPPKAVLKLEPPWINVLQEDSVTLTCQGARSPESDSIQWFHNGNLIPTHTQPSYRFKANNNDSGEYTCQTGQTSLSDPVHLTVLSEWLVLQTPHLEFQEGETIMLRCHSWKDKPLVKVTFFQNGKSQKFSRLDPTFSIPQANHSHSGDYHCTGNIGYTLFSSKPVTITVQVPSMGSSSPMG

T5: human FcγRIIb extracellular domain with C-terminal His tag (human, UniProt P31994 43-217)
T5 sequence (looked up): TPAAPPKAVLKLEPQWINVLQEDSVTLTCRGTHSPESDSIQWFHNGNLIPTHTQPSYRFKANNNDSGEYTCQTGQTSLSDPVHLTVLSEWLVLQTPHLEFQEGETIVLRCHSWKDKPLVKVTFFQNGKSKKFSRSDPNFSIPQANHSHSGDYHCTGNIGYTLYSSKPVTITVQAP

T6: human FcγRIIa type H (His131) extracellular domain with C-terminal His tag (human, UniProt P12318 34-217)
T6 sequence (looked up): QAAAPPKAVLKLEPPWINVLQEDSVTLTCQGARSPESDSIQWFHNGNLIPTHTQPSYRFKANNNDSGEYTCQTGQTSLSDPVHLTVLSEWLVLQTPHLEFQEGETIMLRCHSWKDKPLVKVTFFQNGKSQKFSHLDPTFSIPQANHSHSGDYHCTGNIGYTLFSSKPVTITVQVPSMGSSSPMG


Key:
[1] = biological target: T1, FcγRIIa type R extracellular domain …; test: ratio of SPR KDs vs IL6R-B3/IL6R-L
[2] = biological target: T2, FcγRIIb extracellular domain with …; test: ratio of SPR KDs vs IL6R-B3/IL6R-L
[3] = biological target: T3, FcγRIIa type H extracellular domain …; test: SPR
[4] = biological target: FcγRIIIa type V extracellular domain with C-terminal His tag (human, UniProt P08637 17-208); test: SPR
[5] = biological target: T2, FcγRIIb extracellular domain with …; test: ratio of SPR KDs, FcγRIIaR over FcγRIIb, same variant
[6] = biological target: T4, human FcγRIIa type R (Arg131) …; test: SPR
[7] = biological target: T5, human FcγRIIb extracellular domain with …; test: SPR
[8] = biological target: T6, human FcγRIIa type H (His131) …; test: SPR
[9] = biological target: human FcγRIIIa type V (Val158) extracellular domain with C-terminal His tag (human, UniProt P08637 17-208); test: SPR
human FcγRIIIa type V (Val158) extracellular domain with C-terminal His tag, sequence (P08637 17-208 F176V): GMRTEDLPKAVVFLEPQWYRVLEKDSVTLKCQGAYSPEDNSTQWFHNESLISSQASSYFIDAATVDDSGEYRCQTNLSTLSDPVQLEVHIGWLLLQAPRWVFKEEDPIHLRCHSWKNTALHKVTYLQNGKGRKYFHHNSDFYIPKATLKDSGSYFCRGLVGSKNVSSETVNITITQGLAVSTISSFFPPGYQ

FcγRIIIa type V extracellular domain with C-terminal His tag, sequence (P08637 17-208 F176V): as above

Row | Binder | KD (IIaR) of parent polypeptide/KD (IIaR) of altered polypeptide [1] | KD (IIb) of parent polypeptide/KD (IIb) of altered polypeptide [2] | Kd [3] | Kd [4] | KD (IIaR)/KD (IIb) [5] | KD (IIaR) of parent polypeptide/KD (IIaR) of altered polypeptide [6] | KD (IIb) of parent polypeptide/KD (IIb) of altered polypeptide [7] | Kd [8] | Kd [9]
1 | IL6R-BP541/IL6R-L (antibody, human IgG1, kappa) heavy: QVQLQESGPGLVKPSETLSLTCAVSGHSISHDHAWSWVRQPPGEGLEWIGFISYSGITNYNPSLQGRVTISRDNSKNTLYLQMNSLRAEDTAVYYCARSLARTTAMDYWGEGTLVTVSSASTKGPSVFPLAPSSKSTSGGTAALGCLVKDYFPEPVTVSWNSGALTSGVHTFPAVLQSSGLYSLSSVVTVPSSSLGTQTYICNVNHKPSNTKVDKKVEPKSCDKTHTCPPCPAPDLLGDDSVFLFPPKPKDTLMISRTPEVTCVVVDVSDEDGEVQFNWYVDGVEVHNAKTKPREEQDNSTYRVVSVLTVLHQDWLNGKEYKCKVSNKALPRPIEKTISKAKGQPREPQVYTLPPSRDELTKNQVSLTCLVKGFYPSDIAVEWESNGQPENNYKTTPPVLDSDGSFFLYSKLTVDKSRWQQGNVFSCSVMHEALHNHYTQESLSLSP light: not shown | 2.4 | 190 | 9.3 µM | 41 µM | 27.8 |  |  |  | 
2 | IL6R-BP546/IL6R-L (antibody, human IgG1, kappa) heavy: QVQLQESGPGLVKPSETLSLTCAVSGHSISHDHAWSWVRQPPGEGLEWIGFISYSGITNYNPSLQGRVTISRDNSKNTLYLQMNSLRAEDTAVYYCARSLARTTAMDYWGEGTLVTVSSASTKGPSVFPLAPSSKSTSGGTAALGCLVKDYFPEPVTVSWNSGALTSGVHTFPAVLQSSGLYSLSSVVTVPSSSLGTQTYICNVNHKPSNTKVDKKVEPKSCDKTHTCPPCPAPDLLGDDSVFLFPPKPKDTLMISRTPEVTCVVVDVSDEDGEVKFNWYVDGVEVHNAKTKPREEQDNSTYRVVSVLTVLHQDWLNGKEYKCKVSNKALPRPIEKTISKAKGQPREPQVYTLPPSRDEMTKNQVSLTCLVKGFYPSDIAVEWESNGQPENNYKTTPPVLDSDGSFFLYSKLTVDKSRWQQGNVFSCSVMHEALHNHYTQESLSLSP light: not shown | 2.2 | 205 | 10 µM | 37 µM | 32.8 |  |  |  | 
3 | IL6R-BP543/IL6R-L (antibody, human IgG1, kappa) heavy: QVQLQESGPGLVKPSETLSLTCAVSGHSISHDHAWSWVRQPPGEGLEWIGFISYSGITNYNPSLQGRVTISRDNSKNTLYLQMNSLRAEDTAVYYCARSLARTTAMDYWGEGTLVTVSSASTKGPSVFPLAPSSKSTSGGTAALGCLVKDYFPEPVTVSWNSGALTSGVHTFPAVLQSSGLYSLSSVVTVPSSSLGTQTYICNVNHKPSNTKVDKKVEPKSCDKTHTCPPCPAPDLLGDDSVFLFPPKPKDTLMISRTPEVTCVVVDVSQEDGEVKFNWYVDGVEVHNAKTKPREEQDNSTYRVVSVLTVLHQDWLNGKEYKCKVSNKALPRPIEKTISKAKGQPREPQVYTLPPSRDELTKNQVSLTCLVKGFYPSDIAVEWESNGQPENNYKTTPPVLDSDGSFFLYSKLTVDKSRWQQGNVFSCSVMHEALHNHYTQESLSLSP light: not shown | 1.9 | 152 | 7.4 µM | 46 µM | 27.3 |  |  |  | 
4 | IL6R-BP544/IL6R-L (antibody, human IgG1, kappa) heavy: QVQLQESGPGLVKPSETLSLTCAVSGHSISHDHAWSWVRQPPGEGLEWIGFISYSGITNYNPSLQGRVTISRDNSKNTLYLQMNSLRAEDTAVYYCARSLARTTAMDYWGEGTLVTVSSASTKGPSVFPLAPSSKSTSGGTAALGCLVKDYFPEPVTVSWNSGALTSGVHTFPAVLQSSGLYSLSSVVTVPSSSLGTQTYICNVNHKPSNTKVDKKVEPKSCDKTHTCPPCPAPDLLGDDSVFLFPPKPKDTLMISRTPEVTCVVVDVSDEDGEVKFNWYVDGVEVHNAKTKPREEQDNSTYRVVSVLTVLHQDWLNGKEYKCKVSNKALPRPIEKTISKAKGQPREPQVYTLPPSQDELTKNQVSLTCLVKGFYPSDIAVEWESNGQPENNYKTTPPVLDSDGSFFLYSKLTVDKSRWQQGNVFSCSVMHEALHNHYTQESLSLSP light: not shown | 2.2 | 184 | 12 µM | 45 µM | 28.8 |  |  |  | 

Other lines, results leading:

Row | KD (IIaR) of parent polypeptide/KD (IIaR) of altered polypeptide [1] | KD (IIb) of parent polypeptide/KD (IIb) of altered polypeptide [2] | Kd [3] | Kd [4] | KD (IIaR)/KD (IIb) [5] | KD (IIaR) of parent polypeptide/KD (IIaR) of altered polypeptide [6] | KD (IIb) of parent polypeptide/KD (IIb) of altered polypeptide [7] | Kd [8] | Kd [9] | Binder
5 |  |  |  |  |  | 1.6 | 131 | 11 µM | 53 µM | IL6R-BP562/IL6R-L (antibody, human IgG1, kappa) heavy: QVQLQESGPGLVKPSETLSLTCAVSGHSISHDHAWSWVRQPPGEGLEWIGFISYSGITNYNPSLQGRVTISRDNSKNTLYLQMNSLRAEDTAVYYCARSLARTTAMDYWGEGTLVTVSSASTKGPSVFPLAPSSKSTSGGTAALGCLVKDYFPEPVTVSWNSGALTSGVHTFPAVLQSSGLYSLSSVVTVPSSSLGTQTYICNVNHKPSNTKVDKKVEPKSCDKTHTCPPCPAPELLGDDSVFLFPPKPKDTLMISRTPEVTCVVVDVSDEDGDVKFNWYVDGVEVHNAKTKPREEQDNSTYRVVSVLTVLHQDWLNGKEYKCKVSNKALPRPIEKTISKAKGQPREPQVYTLPPSRDELTKNQVSLTCLVKGFYPSDIAVEWESNGQPENNYKTTPPVLDSDGSFFLYSKLTVDKSRWQQGNVFSCSVMHEALHNHYTQESLSLSP light: not shown
6 |  |  |  |  |  | 1.9 | 141 | 10 µM | 49 µM | IL6R-BP564/IL6R-L (antibody, human IgG1, kappa) heavy: QVQLQESGPGLVKPSETLSLTCAVSGHSISHDHAWSWVRQPPGEGLEWIGFISYSGITNYNPSLQGRVTISRDNSKNTLYLQMNSLRAEDTAVYYCARSLARTTAMDYWGEGTLVTVSSASTKGPSVFPLAPSSKSTSGGTAALGCLVKDYFPEPVTVSWNSGALTSGVHTFPAVLQSSGLYSLSSVVTVPSSSLGTQTYICNVNHKPSNTKVDKKVEPKSCDKTHTCPPCPAPELLGDDSVFLFPPKPKDTLMISRTPEVTCVVVDVSEEDGDVKFNWYVDGVEVHNAKTKPREEQDNSTYRVVSVLTVLHQDWLNGKEYKCKVSNKALPRPIEKTISKAKGQPREPQVYTLPPSRDELTKNQVSLTCLVKGFYPSDIAVEWESNGQPENNYKTTPPVLDSDGSFFLYSKLTVDKSRWQQGNVFSCSVMHEALHNHYTQESLSLSP light: not shown
7 |  |  |  |  |  | 0.3 | 16.8 | 31 µM | 41 µM | IL6R-BP560/IL6R-L (antibody, human IgG1, kappa) heavy: QVQLQESGPGLVKPSETLSLTCAVSGHSISHDHAWSWVRQPPGEGLEWIGFISYSGITNYNPSLQGRVTISRDNSKNTLYLQMNSLRAEDTAVYYCARSLARTTAMDYWGEGTLVTVSSASTKGPSVFPLAPSSKSTSGGTAALGCLVKDYFPEPVTVSWNSGALTSGVHTFPAVLQSSGLYSLSSVVTVPSSSLGTQTYICNVNHKPSNTKVDKKVEPKSCDKTHTCPPCPAPELLGGDSVFLFPPKPKDTLMISRTPEVTCVVVDVGEEDGEVKFNWYVDGVEVHNAKTKPREEQDNSTYRVVSVLTVLHQDWLNGKEYKCKVSNKALPRPIEKTISKAKGQPREPQVYTLPPSRDELTKNQVSLTCLVKGFYPSDIAVEWESNGQPENNYKTTPPVLDSDGSFFLYSKLTVDKSRWQQGNVFSCSVMHEALHNHYTQESLSLSP light: not shown
8 |  |  |  |  |  | 0.7 | 110 | 20 µM | 44 µM | IL6R-BP559/IL6R-L (antibody, human IgG1, kappa) heavy: QVQLQESGPGLVKPSETLSLTCAVSGHSISHDHAWSWVRQPPGEGLEWIGFISYSGITNYNPSLQGRVTISRDNSKNTLYLQMNSLRAEDTAVYYCARSLARTTAMDYWGEGTLVTVSSASTKGPSVFPLAPSSKSTSGGTAALGCLVKDYFPEPVTVSWNSGALTSGVHTFPAVLQSSGLYSLSSVVTVPSSSLGTQTYICNVNHKPSNTKVDKKVEPKSCDKTHTCPPCPAPELLGGDSVFLFPPKPKDTLMISRTPEVTCVVIDVAEEDGDVKFNWYVDGVEVHNAKTKPREEQDNSTYRVVSVLTVLHQDWLNGKEYKCKVSNKALPAPIEKTISKAKGQPREPQVYTLPPSRDELTKNQVSLTCLVKGFYPSDIAVEWESNGQPENNYKTTPPVLDSDGSFFLYSKLTVDKSRWQQGNVFSCSVMHEALHNHYTQESLSLSP light: not shown
